Measurements reported in patent publication US20180177842A1 (CANIMGUIDE THERAPEUTICS, published 2018).

T1: P3028 (VFDEFKPLVEEPQNLIK, SEQ ID NO: 185), His-tagged (human)
T1 construct: Synthetic fragment of human serum albumin (positions 397-413); used in solution as His-tagged peptide PGE73; also called PGE73; not shown: His-tag
T1 peptide: VFDEFKPLVEEPQNLIK

B1: KKLDTFFVKLSRFTER (SEQ ID NO: 356) (peptide)
peptide: KKLDTFFVKLSRFTER
B2: KKLDTFVVKLSLFTER (SEQ ID NO: 325) (peptide)
peptide: KKLDTFVVKLSLFTER
B3: KKLDTFYVKLSLFTER (SEQ ID NO: 463) (peptide)
peptide: KKLDTFYVKLSLFTER
B4: KKLDTFFVKLYLFTER (SEQ ID NO: 415) (peptide)
peptide: KKLDTFFVKLYLFTER
B5: KKLITFFVKLSLFTER (SEQ ID NO: 300) (peptide)
peptide: KKLITFFVKLSLFTER
B6: KKLDTFFVKYSLFTER (SEQ ID NO: 344) (peptide)
peptide: KKLDTFFVKYSLFTER
B7: KKLDTFFVTLSLFTER (SEQ ID NO: 445) (peptide)
peptide: KKLDTFFVTLSLFTER
B8: KKLDTFWVKLSLFTER (SEQ ID NO: 425) (peptide)
peptide: KKLDTFWVKLSLFTER
B9: KKLDTNFVKLSLFTER (SEQ ID NO: 316) (peptide)
peptide: KKLDTNFVKLSLFTER
B10: KKLDTFFVKMSLFTER (SEQ ID NO: 336) (peptide)
peptide: KKLDTFFVKMSLFTER
B11: KKLMTFFVKLSLFTER (SEQ ID NO: 423) (peptide)
peptide: KKLMTFFVKLSLFTER
B12: KKLDTFFVKNSLFTER (SEQ ID NO: 337) (peptide)
peptide: KKLDTFFVKNSLFTER
B13: KKLNTFFVKLSLFTER (SEQ ID NO: 498) (peptide)
peptide: KKLNTFFVKLSLFTER
B14: KKLDTIFVKLSLFTER (SEQ ID NO: 314) (peptide)
peptide: KKLDTIFVKLSLFTER
B15: KKLDTFFVKSSLFTER (SEQ ID NO: 341) (peptide)
peptide: KKLDTFFVKSSLFTER
B16: KKLFTFFVKLSLFTER (SEQ ID NO: 426) (peptide)
peptide: KKLFTFFVKLSLFTER
B17: KKLETFFVKLSLFTER (SEQ ID NO: 299) (peptide)
peptide: KKLETFFVKLSLFTER
B18: KKLDTFFVRLSLFTER (SEQ ID NO: 331) (peptide)
peptide: KKLDTFFVRLSLFTER
B19: KKLDTSFVKLSLFTER (SEQ ID NO: 401) (peptide)
peptide: KKLDTSFVKLSLFTER
B20: KKLDTFFVKTSLFTER (SEQ ID NO: 342) (peptide)
peptide: KKLDTFFVKTSLFTER
B21: KKLDTFFVKQSLFTER (SEQ ID NO: 339) (peptide)
peptide: KKLDTFFVKQSLFTER
B22: KKLDTFMVKLSLFTER (SEQ ID NO: 321) (peptide)
peptide: KKLDTFMVKLSLFTER
B23: KKLDTFFVKLSSFTER (SEQ ID NO: 357) (peptide)
peptide: KKLDTFFVKLSSFTER
B24: KKLDTKFVKLSLFTER (SEQ ID NO: 460) (peptide)
peptide: KKLDTKFVKLSLFTER
B25: KKLDTFFVKRSLFTER (SEQ ID NO: 340) (peptide)
peptide: KKLDTFFVKRSLFTER
B26: KKLDTFFVKLTLFTER (SEQ ID NO: 349) (peptide)
peptide: KKLDTFFVKLTLFTER
B27: KKLDTFFVKWSLFTER (SEQ ID NO: 482) (peptide)
peptide: KKLDTFFVKWSLFTER
B28: KKLDTFNVKLSLFTER (SEQ ID NO: 443) (peptide)
peptide: KKLDTFNVKLSLFTER
B29: KKLQTFFVKLSLFTER (SEQ ID NO: 448) (peptide)
peptide: KKLQTFFVKLSLFTER
B30: KKLDTFHVKLSLFTER (SEQ ID NO: 433) (peptide)
peptide: KKLDTFHVKLSLFTER
B31: KKLDTFPVKLSLFTER (SEQ ID NO: 437) (peptide)
peptide: KKLDTFPVKLSLFTER
B32: KKLDWFFVKLSLFTER (SEQ ID NO: 311) (peptide)
peptide: KKLDWFFVKLSLFTER
B33: KKLDTGFVKLSLFTER (SEQ ID NO: 446) (peptide)
peptide: KKLDTGFVKLSLFTER
B34: KKLDTFFVKVSLFTER (SEQ ID NO: 343) (peptide)
peptide: KKLDTFFVKVSLFTER
B35: KKLDTFFVSLSLFTER (SEQ ID NO: 511) (peptide)
peptide: KKLDTFFVSLSLFTER
B36: KKLDTFFVKLSYFTER (SEQ ID NO: 475) (peptide)
peptide: KKLDTFFVKLSYFTER
B37: KKLDTLFVKLSLFTER (SEQ ID NO: 411) (peptide)
peptide: KKLDTLFVKLSLFTER
B38: KKLDTFRVKLSLFTER (SEQ ID NO: 432) (peptide)
peptide: KKLDTFRVKLSLFTER
B39: KKLDTFFVKPSLFTER (SEQ ID NO: 338) (peptide)
peptide: KKLDTFFVKPSLFTER
B40: KKLDYFFVKLSLFTER (SEQ ID NO: 312) (peptide)
peptide: KKLDYFFVKLSLFTER
B41: KKLDTFFVKLSWFTER (SEQ ID NO: 360) (peptide)
peptide: KKLDTFFVKLSWFTER
B42: KKLDTFFVQLSLFTER (SEQ ID NO: 469) (peptide)
peptide: KKLDTFFVQLSLFTER
B43: KKLDTHFVKLSLFTER (SEQ ID NO: 466) (peptide)
peptide: KKLDTHFVKLSLFTER
B44: KKLDTFIVKLSLFTER (SEQ ID NO: 397) (peptide)
peptide: KKLDTFIVKLSLFTER
B45: KKLDTFFVKLSTFTER (SEQ ID NO: 358) (peptide)
peptide: KKLDTFFVKLSTFTER
B46: KKLDTFFVKLWLFTER (SEQ ID NO: 472) (peptide)
peptide: KKLDTFFVKLWLFTER
B47: KKLDVFFVKLSLFTER (SEQ ID NO: 429) (peptide)
peptide: KKLDVFFVKLSLFTER
B48: KKLDTTFVKLSLFTER (SEQ ID NO: 318) (peptide)
peptide: KKLDTTFVKLSLFTER
B49: KKLDTFFVWLSLFTER (SEQ ID NO: 526) (peptide)
peptide: KKLDTFFVWLSLFTER
B50: KKLDTRFVKLSLFTER (SEQ ID NO: 486) (peptide)
peptide: KKLDTRFVKLSLFTER
B51: KKLDTFFVKLVLFTER (SEQ ID NO: 419) (peptide)
peptide: KKLDTFFVKLVLFTER
B52: KKLDTMFVKLSLFTER (SEQ ID NO: 315) (peptide)
peptide: KKLDTMFVKLSLFTER
B53: KKLDTVFVKLSLFTER (SEQ ID NO: 319) (peptide)
peptide: KKLDTVFVKLSLFTER
B54: KKLDTFFVKLSVFTER (SEQ ID NO: 359) (peptide)
peptide: KKLDTFFVKLSVFTER
B55: KKLDTFGVKLSLFTER (SEQ ID NO: 96) (peptide)
peptide: KKLDTFGVKLSLFTER
B56: KKLGTFFVKLSLFTER (SEQ ID NO: 515) (peptide)
peptide: KKLGTFFVKLSLFTER
B57: KKLDTQFVKLSLFTER (SEQ ID NO: 410) (peptide)
peptide: KKLDTQFVKLSLFTER
B58: KKLLTFFVKLSLFTER (SEQ ID NO: 491) (peptide)
peptide: KKLLTFFVKLSLFTER
B59: KKLDTFFVMLSLFTER (SEQ ID NO: 509) (peptide)
peptide: KKLDTFFVMLSLFTER
B60: KKLDTFLVKLSLFTER (SEQ ID NO: 320) (peptide)
peptide: KKLDTFLVKLSLFTER
B61: KKLPTFFVKLSLFTER (SEQ ID NO: 435) (peptide)
peptide: KKLPTFFVKLSLFTER
B62: KKLDTFSVKLSLFTER (SEQ ID NO: 323) (peptide)
peptide: KKLDTFSVKLSLFTER
B63: KKLDTFQVKLSLFTER (SEQ ID NO: 322) (peptide)
peptide: KKLDTFQVKLSLFTER
B64: KKLDTFFVVLSLFTER (SEQ ID NO: 523) (peptide)
peptide: KKLDTFFVVLSLFTER
B65: KKLKTFFVKLSLFTER (SEQ ID NO: 512) (peptide)
peptide: KKLKTFFVKLSLFTER
B66: KKLDTFFVNLSLFTER (SEQ ID NO: 518) (peptide)
peptide: KKLDTFFVNLSLFTER
notes: also called 31136
B67: KKLHTFFVKLSLFTER (SEQ ID NO: 479) (peptide)
peptide: KKLHTFFVKLSLFTER
B68: KKLDTFTVKLSLFTER (SEQ ID NO: 324) (peptide)
peptide: KKLDTFTVKLSLFTER
B69: KKLDTYFVKLSLFTER (SEQ ID NO: 434) (peptide)
peptide: KKLDTYFVKLSLFTER
B70: KKLDTPFVKLSLFTER (SEQ ID NO: 317) (peptide)
peptide: KKLDTPFVKLSLFTER
B71: KKLDTWFVKLSLFTER (SEQ ID NO: 444) (peptide)
peptide: KKLDTWFVKLSLFTER

Biological target: T1, P3028 (VFDEFKPLVEEPQNLIK, SEQ ID NO: …)
Experiment: PEPSCAN ELISA; peptide on chip, His-P3028 added;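 also: peroxidase color development with ABTS and H2O2 substrate, OD405 imaged by CCD camera with image processing and taken as raw values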
Procedure: After washing, the peroxidase substrate 2,2′-azine-di-3-ethylbenzthiazoline sulfonate (ABTS) and 2 μL of 3% H2O2 were added. The binding capacity of the mAb was measured as a color development at 405 nm (optical density, OD405). The color development was quantified with a charge-coupled device (CCD)—camera and an image processing system.
The OD405-values obtained by a CCD-camera was considered as raw data values (“rampo values,” “rampo units,” or “rampo scores”). […] First the CCD-camera made a picture of the card before peroxidase coloring and then again a picture after the peroxidase coloring. […] These values were copied into an excel file and labeled as a raw data file. […] Sometimes a well can contain an air-bubble resulting in a false-positive value. If manual inspection of the cards detect an air-bubble the value are set to 0 for well.

Row | Binder | RAMPO Score [rampo units]
1 | B1 | 483
2 | B2 | 527
3 | B3 | 334
4 | B4 | 402
5 | B5 | 430
6 | B6 | 382
7 | B7 | 347
8 | B8 | 380
9 | B9 | 446
10 | B10 | 460
11 | B11 | 384
12 | B12 | 365
13 | B13 | 296
14 | B14 | 466
15 | B15 | 351
16 | B16 | 380
17 | B17 | 417
18 | B18 | 374
19 | B19 | 432
20 | B20 | 399
21 | B21 | 470
22 | B22 | 712
23 | B23 | 478
24 | B24 | 337

Row | Binder | RAMPO Score [rampo units]
25 | B25 | 439
26 | B26 | 520
27 | B27 | 316
28 | B28 | 348
29 | B29 | 345
30 | B30 | 364
31 | B31 | 356
32 | B32 | 418
33 | B33 | 347
34 | B34 | 658
35 | B35 | 274
36 | B36 | 320
37 | B37 | 408
38 | B38 | 369
39 | B39 | 436
40 | B40 | 425
41 | B41 | 409
42 | B42 | 330
43 | B43 | 332
44 | B44 | 446
45 | B45 | 437
46 | B46 | 324
47 | B47 | 374
48 | B48 | 481

Row | Binder | RAMPO Score [rampo units]
49 | B49 | 245
50 | B50 | 309
51 | B51 | 392
52 | B52 | 467
53 | B53 | 547
54 | B54 | 545
55 | B55 | 347
56 | B56 | 264
57 | B57 | 410
58 | B58 | 303
59 | B59 | 283
60 | B60 | 517
61 | B61 | 364
62 | B62 | 700
63 | B63 | 511
64 | B64 | 248
65 | B65 | 274
66 | B66 | 256
67 | B67 | 317
68 | B68 | 517
69 | B69 | 364
70 | B70 | 497
71 | B71 | 348
